Experimental data: US20190010493A1 (published 2019)

What was measured:
[1] = target: T1, full-length mAKAPβ protein with an internal deletion of residues 1257 to 1886 (rat) (UniProt Q9WVC7); assay: co-immunoprecipitation, heterologous cells
T1 sequence: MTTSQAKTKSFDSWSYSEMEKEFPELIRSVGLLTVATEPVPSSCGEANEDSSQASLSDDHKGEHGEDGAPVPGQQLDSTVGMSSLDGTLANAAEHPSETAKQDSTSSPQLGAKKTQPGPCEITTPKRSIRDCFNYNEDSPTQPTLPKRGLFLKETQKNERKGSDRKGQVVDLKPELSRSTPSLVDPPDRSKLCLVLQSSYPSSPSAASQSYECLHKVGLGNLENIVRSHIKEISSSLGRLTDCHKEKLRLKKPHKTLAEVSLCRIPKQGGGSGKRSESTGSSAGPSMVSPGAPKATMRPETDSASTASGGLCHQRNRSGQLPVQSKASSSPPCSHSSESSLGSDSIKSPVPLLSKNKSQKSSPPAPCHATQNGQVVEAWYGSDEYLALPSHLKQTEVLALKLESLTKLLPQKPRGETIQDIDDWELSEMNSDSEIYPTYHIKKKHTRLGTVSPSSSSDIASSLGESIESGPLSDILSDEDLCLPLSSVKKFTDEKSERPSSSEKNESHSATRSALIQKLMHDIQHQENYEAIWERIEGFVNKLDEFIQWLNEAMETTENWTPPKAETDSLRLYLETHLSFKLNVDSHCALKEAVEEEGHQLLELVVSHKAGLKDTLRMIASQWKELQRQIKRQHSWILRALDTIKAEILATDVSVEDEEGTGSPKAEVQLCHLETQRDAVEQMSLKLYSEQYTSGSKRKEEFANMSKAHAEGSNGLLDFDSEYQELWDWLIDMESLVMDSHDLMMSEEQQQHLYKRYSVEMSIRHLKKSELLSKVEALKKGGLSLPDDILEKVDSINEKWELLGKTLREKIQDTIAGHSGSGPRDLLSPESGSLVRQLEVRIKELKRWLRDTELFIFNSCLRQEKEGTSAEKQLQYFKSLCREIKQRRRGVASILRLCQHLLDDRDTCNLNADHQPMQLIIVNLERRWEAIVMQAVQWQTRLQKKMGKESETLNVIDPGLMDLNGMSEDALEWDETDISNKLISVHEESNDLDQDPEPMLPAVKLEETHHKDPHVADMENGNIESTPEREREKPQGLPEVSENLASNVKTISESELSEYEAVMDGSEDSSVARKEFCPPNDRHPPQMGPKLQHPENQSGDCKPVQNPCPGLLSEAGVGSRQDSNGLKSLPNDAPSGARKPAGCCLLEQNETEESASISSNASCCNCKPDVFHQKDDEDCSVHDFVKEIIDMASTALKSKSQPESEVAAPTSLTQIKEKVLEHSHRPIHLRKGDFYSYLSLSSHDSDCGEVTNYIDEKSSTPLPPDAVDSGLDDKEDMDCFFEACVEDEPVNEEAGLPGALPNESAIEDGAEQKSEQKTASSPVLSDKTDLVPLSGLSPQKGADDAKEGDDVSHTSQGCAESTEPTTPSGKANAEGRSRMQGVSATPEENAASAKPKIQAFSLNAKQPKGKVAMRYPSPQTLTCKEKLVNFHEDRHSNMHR

[2] = target: T2, N-terminally truncated RSK3 mutant (HA-RSK3 DN30) (human, UniProt Q15349 31-733); assay: co-immunoprecipitation in heterologous cells
T2 construct: The range 31-733 is inferred from the label 'DN30'; not shown: hemagglutinin (HA) tag
Source text: To address this hypothesis, the inventors defined the mAKAP domains responsible for RSK3 binding. HA-tagged RSK3 was co-expressed in heterologous cells with myc-tagged mAKAPβ fragments and coimmunoprecipitated using a myc-tag antibody (FIGS. 7A and 7B of U.S. Pat. No. 9,132,174). […] As shown, the unique N-terminal domain of RSK3 bound full-length mAKAPβ (FIG. 4D of U.S. Pat. No. 9,132,174). The mAKAP RBD also bound HA-RSK3 1 to 42 (FIG. 7E of U.S. Pat. No. 9,132,174), but not to the N-terminally truncated RSK3 mutant (HA-RSK3 DN30) or the HA-tagged full-length RSK2 (FIG. 7F of U.S. Pat. No. 9,132,174).
Immunoprecipitations: HEK293 and COS-7 cells were transfected with Lipofectamine 2000 (Invitrogen) or Polyethylenimine “Max” (Polysciences). Cells (including myocytes) were lysed in buffer (20 mmol/L HEPES, pH 7.4, 150 mmol/L NaCl, 5 mmol/L EDTA, 0.5% Triton, 50 mmol/L NaF, 1 mmol/L sodium orthovanadate, 1 mmol/L DTT, and protease inhibitors). After centrifugation at 10,000×g for 10 minutes at 4° C., the clarified extracts were used for immunoprecipitation using appropriate antibodies (10 μg purified antibody or 1-5 μL whole serum) and 20 μL protein G sepharose (Millipore, Fastflow) for 3 hours to overnight at 4° C. The beads were washed 3-5 times with lysis buffer, and the immunoprecipitated proteins were eluted with 1× Laemmli buffer for western blotting. […]

[3] = target: T3, bacterially expressed His-tagged mAKAP 1286 to 1833 (rat, UniProt Q9WVC7 1286-1833); assay: SPR (BIAcore T100), His-mAKAP 1286-1833 immobilised, phospho-His-RSK3 analyte
T3 construct: Covalently immobilised by amine coupling on a CM5 chip, 200 resonance units; not shown: His tag (pET30-based vector)
T3 sequence: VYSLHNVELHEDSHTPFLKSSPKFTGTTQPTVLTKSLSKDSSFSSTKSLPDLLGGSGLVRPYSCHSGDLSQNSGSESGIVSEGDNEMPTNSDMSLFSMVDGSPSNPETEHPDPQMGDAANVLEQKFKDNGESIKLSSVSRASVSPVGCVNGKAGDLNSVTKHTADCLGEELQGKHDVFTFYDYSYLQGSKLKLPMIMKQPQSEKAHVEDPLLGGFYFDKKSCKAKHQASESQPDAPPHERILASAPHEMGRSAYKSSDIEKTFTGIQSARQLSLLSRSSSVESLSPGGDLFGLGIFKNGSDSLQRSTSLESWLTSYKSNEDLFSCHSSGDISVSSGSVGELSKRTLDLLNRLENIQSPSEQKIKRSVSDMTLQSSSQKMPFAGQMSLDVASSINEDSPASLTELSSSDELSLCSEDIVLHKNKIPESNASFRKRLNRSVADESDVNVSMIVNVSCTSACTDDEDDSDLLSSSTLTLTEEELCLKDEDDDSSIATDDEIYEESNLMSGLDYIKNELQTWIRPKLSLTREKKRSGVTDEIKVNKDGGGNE
Description: The inventors next tested whether mAKAP-RSK3 binding is direct (FIG. 7G of U.S. Pat. No. 9,132,174). […] The binding was direct and of high affinity (nanomolar KD). The inventors previously reported that once activated, RSK3 binds mAKAPα less well in cells (Michele 2005).
Surface Plasmon Resonance: SPR analysis was performed using a BIAcore T100. […] (Biacore amine coupling kit) to the surface of a sensor chip (BIAcore type CM5). His-RSK3 analytes (6.25-200 nmol/L) in HBS buffer (10 mmol/L Hepes, pH 7.4, 150 mmol/L NaCl, and 0.005% Surfactant P20) were injected at a flow rate of 30 μL/min for 5 minutes, followed by buffer alone for another 5 minutes. Sensorgrams were processed by BIAcore T100 evaluation software.

## HA-tagged RSK3 (type 3 p90 ribosomal S6 kinase) (from UniProt Q15349 1-733) (enzyme)
[1]
  reduction of binding against full-length mAKAPβ: > 85%

B1: mAKAP RSK binding domain (RBD), mAKAP residues 1694 to 1833 (other, not shown: small tags and cut ends)
chain: ELSLCSEDIVLHKNKIPESNASFRKRLNRSVADESDVNVSMIVNVSCTSACTDDEDDSDLLSSSTLTLTEEELCLKDEDDDSSIATDDEIYEESNLMSGLDYIKNELQTWIRPKLSLTREKKRSGVTDEIKVNKDGGGNE
notes: also called mAKAP RBD
[2]
  binding result: no binding

B2: His-RSK3 phosphorylated by ERK (enzyme)
chain: MDLSMKKFAVRRFFSVYLRRKSRSKSSSLSRLEEEGVVKEIDISHHVKEGFEKADPSQFELLKVLGQGSYGKVFLVRKVKGSDAGQLYAMKVLKKATLKVRDRVRSKMERDILAEVNHPFIVKLHYAFQTEGKLYLILDFLRGGDLFTRLSKEVMFTEEDVKFYLAELALALDHLHSLGIIYRDLKPENILLDEEGHIKITDFGLSKEAIDHDKRAYSFCGTIEYMAPEVVNRRGHTQSADWWSFGVLMFEMLTGSLPFQGKDRKETMALILKAKLGMPQFLSGEAQSLLRALFKRNPCNRLGAGIDGVEEIKRHPFFVTIDWNTLYRKEIKPPFKPAVGRPEDTFHFDPEFTARTPTDSPGVPPSANAHHLFRGFSFVASSLIQEPSQQDLHKVPVHPIVQQLHGNNIHFTDGYEIKEDIGVGSYSVCKRCVHKATDTEYAVKIIDKSKRDPSEEIEILLRYGQHPNIITLKDVYDDGKFVYLVMELMRGGELLDRILRQRYFSEREASDVLCTITKTMDYLHSQGVVHRDLKPSNILYRDESGSPESIRVCDFGFAKQLRAGNGLLMTPCYTANFVAPEVLKRQGYDAACDIWSLGILLYTMLAGFTPFANGPDDTPEEILARIGSGKYALSGGNWDSISDAAKDVVSKMLHVDPHQRLTAMQVLKHPWVVNREYLSPNQLSRQDVHLVKGAMAATYFALNRTPQAPRLEPVLSSNLAQRRGMKRLTSTRL
modifications: phosphorylated in vitro with ERK2; sites on this protein not stated here (S360 is named as the ERK site of HA-RSK3 in paragraph 123)
notes: also called Phospho-His-RSK3 (ERK2); not shown: His tag
[3]
  fold decrease of binding affinity against unphosphorylated RSK3: 5 fold

B3: His-RSK3 phosphorylated by both ERK and PDK1 (enzyme)
chain: B2 chain
modifications: phosphorylated in vitro with ERK2 and PDK1; sites on this protein not stated here (S360 ERK site and S218 PDK1 site are named for HA-RSK3 in paragraph 123)
notes: also called Phospho-His-RSK3 (ERK2 and PDK1); not shown: His tag
[3]
  fold decrease of binding affinity against unphosphorylated RSK3: 8 fold
